# Measured values taken from the nanobody polyreactivity screen of Harvey et al. (2022).
# Test: yeast display, Sf9 membrane polyspecificity reagent, FACS + sequencing; frameworks hold sequencing errors
# Method in brief: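 Sorting gates, low and high (top ~1%), were placed on anti-HA fluorescence to track expression and on streptavidin fluorescence to track reagent binding. A clone's polyreactivity label is taken from the gate it came out of. The reagent was 10% biotinylated, detergent-solubilized Sf9 membrane, applied for 1 hour at 4 °C to galactose-induced yeast display cells.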
row,Sequence,polyreactivity (PSR sort gate)
1,QVQLVESGGGLVQAGGSLRLSCAASGSTFEDNAMGWYRQAPGKERELVAVITWTGGSTYYADSVKGRFTISRDNAKNTVYLQMNSLKPEDTAGYYCAADGVVPGRFFWPAHAYDYCGQGTQVTVSS,low polyreactivity
2,QVQLVESGGGLVQAGGSIRLSCAASGGTFSAYAMGWYRQAPGKERELVAAINISGGRTYYADSVKGRFTISRDNAKNTVYLQMNSLKPEDTAVYYCAAKNFRDRGNDYWGQGTQVTVSS,high polyreactivity
3,QVQLVESGGGLVQAGGSLRLSCAASGSIFTSYAMGWYRQAPGKERELVAAISSSGSTYYADSVKGRFTISRDNAKNTVYLQMNSLKPEDTAVYYCNADSRTAGLNSEYDYWGQGTQVTVSS,low polyreactivity
4,QGQRVESGGGLVQAGGSLRLSCAASGRIFTQYAMGWYRQAPGKARELVAASNASDGSTYADSVKGRFTISRDNAKNTVYIQINSLKPEDTAVYYCNVTGGPYDFTRWSEFDHWGQGTHVTVSS,low polyreactivity
5,QVQLVESRGGLVQAGGSLRLSCAASGSIFPYYAMGWYRQAPGKERELVAAISLSGVSTTYADSVKGRFTISRDNAKNTVYLQMNSLKPVDTAVYYCAAKSFWSRYVGGYYWGQGTQVTVSS,high polyreactivity
6,QVQLVESGRRLVQAGGSLRLSCAASGSTFYGYGMGWYRQAPGKERELVAAITGSGDTTYYADSVKGRFTISRDNAKNTVYLQLNSLKPEDTAVDYCNARWHAEYDYWGQGTQVTVSS,low polyreactivity
7,QVQLVESGGGLVQAGGSLRLSCAASGRTFLLNAMGWYRQAPGKERELVAAITGSGGRTNYADSVKGRFTISRDNAKNTVYLQMNSLKPEDTAVYYCNARFPDWALSEISHSTTYGYWGQGTQVTVSS,low polyreactivity
8,QVQLVESGGGLVQAGGSLRLSCAASGNIFVRYTMGWYRQAPGTERELVARITSGGSTYYADSVKGRFTISRDNAKNTVYLQMNSLKPEDTAVYYCAAAIGTRLYSYYYWGQGTQVTVSS,high polyreactivity
9,QVQLVESGGGLVQAGGSLRLSCAASGRIIPKYAMGWYRQAPGKERELVAAISSSGGSTYYADSVKGRFTISRDNAKNTVYLQINSLKPEDTAVYYCNVDKATRYRYPGFDYWGQGTQVTVSS,high polyreactivity
10,QVQLVESGGGLVQAGGSLRLSCAASGRTFRVYTMGWYRPAPGKERELVAVISGRGGSTSYADSVKGRFTISRDNAKNSVYVQINSLKPEDTAVYYCAALYTQSNSASMYYWGQGTQVTVSS,high polyreactivity
11,QVQLVESGGALVQAGGSIRLSCAASGSTFAYYAMGWYRQATGKERELVAAINWRTYYADSVKGRFTISRDNAKNTVYLQMNSLKPEDSAVYYCAAGYYRNKFYYWGQGTQVTVSS,high polyreactivity
12,QVQLVESGGGLVQAGGSLRLSCGASGFIFLKNAMGWYRQAPGKARELVAAITRSGDITYYADSVKGRFTISRDNAKNTVYLKMNSLKPEDTAVYYCATTREFPSYDSWGQGTQVTVSS,low polyreactivity
13,QVQLVESGGGLVQAGGSLRLSCAASGRISKIYAMGWYRQAPGKERELVAAINSGGSTNYADSVKGRFTISRDNAKNTVYLQLNSLKPEDTAVYYCAATFKSGMDYWGQGTQVTVSS,high polyreactivity
14,QVQLVESGGGLVQAGGSLRLSCAASGLIFGYYAKGWNTQAPGKERELVADISSGGSSNYADSVKGRFTISRDNAKNTVYLQMMSLKPEVTAVYYCAARYSRWFGFWGQGTQVTVSS,high polyreactivity
15,QVQIVESGGGLVQARGSLRLSFAASGFTFSHYAMGWYRQAPGKERELVAAISASGGRTYFADSVKGRFTISRDNAKNTVYVQMNSLKPEDTAVYYCAAKLYDCGGRYWYVYWGQGTQVTVSS,high polyreactivity
16,QVQLVESGGGLVQAGGSLRLSCAASGSIFYGNTMGWYRQAPGKERELVAAITWSGDSTYYADSVKGRFTISRDIAKNTVYLQMISLKPEDTALYYCNADQTGVYYAGEGNHWGQGTQVSVSS,low polyreactivity
17,QVQLVESGGGLVQAGGSLRLSCAASGSNFDVNAMGWYRQAPGKERELVAAISDSGGSTYYADSVKGRFTISRDNAKNTVYLQMNSLKPEDTAVYYCNADWSWYNYYDFDYWGQGTQVTVSS,low polyreactivity
18,QVQLVESGGGLVQAGGSLRLSCAASGITFYDYTMGWYRQAPGKERELVAAISSRGGSTYYADSVKGRFTISRDNAKNTVYLQMNSLKPEDTAVYYCNADYIYSFYWSFYEYDYWGQGTQVTVSS,high polyreactivity
19,QVQLVESGGGLVQAGGSLRLSCAASGFIIKFYAMGWYRQAPGKERELVATITISSGTTYYADSVKGRFTISRDTAKNTVYLQMNSLKPEDTAVYYCAASTLPAWPYDGPAGPRYDYWGQGTQVTVSS,low polyreactivity
20,QVQLVESGGGLVQAGGSLRLSCAASGRTFFYYAMGWYRQAPGKERELVAAISTNGGSTYYADSVKGRFTISRDNAKNTVYLQMNSMKPDDTAVYYCNTYAKPHRSGGGLGGHYYWGQGTQVTVSS,low polyreactivity
21,QVQIVESGGGLVQAGGSLRLSCAASGSTFPTNAMGWYRQAPGKERELVAAITSTGSTYADSVKGRFTISRDNAKNTVYLQMNSLKPEDTAVYYCAADTQWTTPYDYWGQGTQVTVSS,low polyreactivity
22,EVQLVESGAGLLQAGGSLRISCAASGITLAYYAMGGYRQAPGTERELVAVINIGVSTDYADSVKGRFTISRDNAKNTVYVQMTSLKPEDTAVYYSAAGWGRRWPQYNYWGQGTQVTVSS,high polyreactivity

row,Sequence,polyreactivity (PSR sort gate)
1,QVQLVESGGGLVQAGGILRLSCAASGFIFRLYAKGWYRQAPGKERGLVAAISSGTSTYYADSVKGRFTISRDNAKNTVYLQMNSLIPEDTAVYYCAARISRYPQDDSDYWGQGTQVTVSS,high polyreactivity
2,QVQLVESGGGLVQAGGSLRLSCAASGRIFPRYAMGWYRQATGKERELVATISSGGSTYYADSVKGRFTISRDNAKNTVYLQMNSLKPEDTAVYYCAARKRPYTVINGMDYWGQGTQVTVSS,low polyreactivity
3,QVQLVESGGGLVQAGGSLRLSCAASGSTFAGNGMGWYRQAPGKERELVAGIDVTGGSTYYADSVKGRFTISRDNAKNTVYLQMNRLKPEDTAVYYCNARYVYHSSFAGFDYWGQGTQVTVSS,low polyreactivity
4,QVQLVESGGGLVQAGGSLRLSCAASGRIFGYYVMGWYRPAPGKERELVAAISRSGGSTYYADSVKGRFTISRDNAKNTVYLQMNSLKPEDTAVYYCAKRVSTYGFSGYDYWGQGTQVTVSS,high polyreactivity
5,QVQLQESGRGLVQAGGSLLSCAASGTISWVDEMGWYRHAPGNERELVAGIAGGGNTNYADSLKGRFTISRDNAKNTVYLHMNSQDTAVYYCAVVVFGRGTHIYWCQGTQVTVSS,high polyreactivity
6,QVQLVESGGGLVQAGGSLRLSCAASGSIFLKNAMGWYRQAPGKERELVAAITPGGSTYYADSVKGRFTISRDNAKNTVYFQMNSLKPEDSAVYHCAARPGGGKYRGYYYWGQGTQVTVSS,high polyreactivity
7,QVQLVETGGGLVHAGGSLRLSCAASGRIFHINAMGWYRQAPGKERELVAAISSGGRTNYADSVKGRFTISRDNAKNTVYLQMNSLKPEDTAVYYCARQYTYGPNRWYGYWGQGTQVTVSS,high polyreactivity
8,QVQLLESGRGLVQEGGSLRLSCAASGFTFTAYAMGWYRQAPGKERELVAVISVRGGRTRYADSVKGRFTLSRDNAKNTVYLQMNSLKPEDTAVYYCDARYRPYSGSPQYDYWGQGTQVTVSS,high polyreactivity
9,QVQLVESGGGLVQAGGSLRLSCAASGSILRRNTMGCYRQAPGKERELVAAINKTGGSTYYADSVKGRFTISRDNAKNTVYLQMNSLKPEDTAVYYCNRDKYYGTKYDYWGQGTQVTVSS,low polyreactivity
10,QVQLVESGGGLVQAGGSLRLSCAASGSIFYGNTMGWYRQAPGKDRELVASITRPGDRTYYADSVKGRFTISRDNAKNTVYLQMNSLKPEDTAVYSCNAGLVLPPPGASIVYFDQMDYWGQGTQLTVSS,low polyreactivity
11,QVQHVESGGGLVQAGGSLRLSCAASGSTFGYNPMGSYRQAPGKERELTNYADSVKGRFTISRDNAKNTVYLQMNSLKPEDTAVYYCNAQIDFGDPEKRAWGYDYWGQGTQVTVSS,low polyreactivity
12,QVQLVESGGGLVQAGGSLRLSCAASGNTFRHNTMGWYRQAPGKERELVSTNYADSVKGRFTISRDNAKNTVYLQMNSLKPEDTAVYYCNADGTFGYEYWGHGTQVTVSS,low polyreactivity
13,QVQLVESGGGLVQAGGSLRLSCAASGSISYIYTMGWDRQAPGKQRELVAAMSGSGSTYYADSVKGRFTISRDNAKNTVYLQMNSLKQEDTAVHYCNAGSGGLNFQEVPHGYDYWGQGTQVTVSS,low polyreactivity
14,QVQLVESGGGLVQAGGSLRLSCAASGRTFGSYAMGWYRQAPGKERELVAAISVSGDSTFYADSVKGRFTISRDNAKNTVYLQMNSLKQEDTAVYYCAARDYVEFWGQGTQVTVSS,low polyreactivity
15,QVQLVESGGGLVQAGGSLRLSCAASGPTFYLYDTMGWYRQAPGKERELVAAISWDDGDTYYADSVKGRFTISRDNAKTTVYLQMNSLKPEDTAVYYCAAEYLSGAHGYWGQGTHVTVSS,low polyreactivity
16,QVQLEESGGGLVQAGGSLRLSCAASGPIFPGYVMGWYRQAPGKERELVAAISVRGGSTYYADSVKGRFTISRDNAKNTVYLQMNSLKPEDTAVYYCAADSYYYQGYRRYNYDYWGQGTQVTVSS,high polyreactivity
17,QVQLVESGGGLVQAGASLRLSCAASGIIFPRYAMGWSRQAPGKERDLVAAISYSGGSTYYADSVKGRFTISRDNAKNTVYLQMNSLKPEDPAVYYCAAKWGWKVGYSYYYWGQGTQVTVSS,high polyreactivity
18,QVQLVESGGGLVQAGGSLRLSCAASGSTFGRYTMGWYRQAPGKERQLVAAISSSGGGTYYADSVKGRLTISRDNAKNTVYLQMNSLKPEDTAVYYCAALGSRRYTRYGLTGFDYWGQGTQVTVSS,high polyreactivity
19,QVQLVESGGGLVQAGGSLRLSCAASGIIFAGYAMGWYRQAPGKVRELVAAISGSGGRTYYADSVKGRLTISRDNAKNTVYLQMNSLKPEDTAVSFCAAEGRSEWGGDYYYGGQGTQVTVSS,low polyreactivity
20,QVQLHESGGGLVQAGGSLRLSCAASGTISVTYNMGWYRQAPGKEREFVAGNSTGATTNYADSVKGRFTISRDNAKKTVYLQMNSLKPEDTAVYYCAAHIYRQDHFYYWGQGTQVTVSS,low polyreactivity
21,QVQLVESGGGLVQAGGSLRLSCAASGFTCSRYAMGWYRQAPGKERELVAAISSGGSTNYADSVKGRFTISRDNAKNTVYLQMNSLKPEDTAVYYCAVTWRYKGYYWGQGTQVTVSS,high polyreactivity
